We go through three molecules from PMC12756933, “Evidence for biomolecular condensates formed by the Escherichia coli MatP protein in spatiotemporal regulation of the bacterial cell division cycle” (International journal of biological macromolecules, 2025).

The labels stand for the following.
T1: FtsZ (E. coli, UniProt P0A9A6 1-383)
T1 construct: FtsZ, Escherichia coli cell division protein; oligomers of variable size without GTP, polymers with GTP; also called FtsZ-GTP; GTP-triggered FtsZ polymers
T1 sequence (looked up): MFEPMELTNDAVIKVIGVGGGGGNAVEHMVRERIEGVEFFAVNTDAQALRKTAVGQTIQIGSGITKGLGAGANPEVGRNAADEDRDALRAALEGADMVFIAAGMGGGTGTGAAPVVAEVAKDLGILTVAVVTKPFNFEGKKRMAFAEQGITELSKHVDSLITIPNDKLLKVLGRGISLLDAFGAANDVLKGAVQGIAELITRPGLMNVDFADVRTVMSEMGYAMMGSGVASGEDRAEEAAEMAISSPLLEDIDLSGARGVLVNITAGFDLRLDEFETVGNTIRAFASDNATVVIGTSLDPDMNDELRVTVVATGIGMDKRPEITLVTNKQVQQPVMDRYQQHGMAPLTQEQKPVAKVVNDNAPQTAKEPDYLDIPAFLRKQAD

B1: FtsZ (natural protein, E. coli, UniProt P0A9A6 1-383, looked up)
chain: T1 sequence (looked up)
modifications: Alexa Fluor 488 or Alexa Fluor 647 at amino groups, on the tracer fraction only (<1 mol of dye per mole of protein)
notes: FtsZ, E. coli; Oligomers of variable size without GTP, polymers with GTP; also called FtsZ-Alexa 488; FtsZ-Alexa 647
B2: MatP (natural protein, E. coli, UniProt P0A8N0 1-150, looked up)
chain: MKYQQLENLESGWKWKYLVKKHREGELITRYIEASAAQEAVDVLLSLENEPVLVNGWIDKHMNPELVNRMKQTIRARRKRHFNAEHQHTRKKSIDLEFIVWQRLAGLAQRRGKTLSETIVQLIEDAENKEKYANKMSSLKQDLQALLGKE
notes: MatP, Escherichia coli, untagged; sediments as a dimer (2.5 S); also called Ter macrodomain organizer MatP; MatP-Alexa 488 (labelled tracer)
B3: MatP (natural protein, E. coli, UniProt P0A8N0 1-150, looked up)
chain: B2 chain
modifications: Alexa Fluor 488 or Alexa Fluor 647 at amino groups, on the tracer fraction only (<1 mol of dye per mole of protein)
notes: MatP, E. coli, untagged; Labelled MatP was used as a tracer mixed with unlabelled MatP; Sediments as a dimer (2.5 S); also called Ter macrodomain organizer MatP; MatP-Alexa 488

Data set [1] concerns the molecule itself. The experiment in a line: AUC; sedimentation velocity, dilute solution buffer with 100 mM KCl, GTP and GTP regeneration system, Rayleigh interference; FtsZ polymers with or without MatP.
Data set [2] addresses T1, FtsZ. The experiment in a line: AUC; multi-signal sedimentation velocity (MSSV), 20 uM FtsZ and 7 uM MatP, absorbance at 250 and 280 nm, 48,000 rpm; dilute solution buffer (50 mM Tris-HCl pH 7.5, 5 mM MgCl2) with 100 mM KCl, no GTP. Particulars: both partners purified.
Data set [3] has as its target B1. The experiment in a line: fluorescence polarisation; anisotropy titration of MatP (50 nM MatP-Alexa 488, 96 nM total MatP) with unlabelled FtsZ; 50 mM Tris-HCl pH 7.5, 5 mM MgCl2, 100 mM KCl; simple 1:1 model, apparent Kd = FtsZ concentration at half of the maximum signal. Particulars: both partners purified.
Data set [4] deals with the molecule itself. The experiment in a line: fluorescence correlation spectroscopy; dilute solution buffer: 50 mM Tris-HCl pH 7.5, 5 mM MgCl2, 100 mM KCl, 0.05 g/L BSA; 10 uM MatP with 10 nM MatP-Alexa 488 as tracer, alone or with 20 uM unlabelled FtsZ, no GTP; at 300 mM KCl the profiles of MatP and FtsZ/MatP overlapped.

Where “and” joins values, the source holds several entries; their conditions need not be identical. Equal values may be shown once.

On to B1, for which, in data set [1], the binding result was “binds”.

B2: in the data set with FtsZ [2], the binding result is on record as “binds”.

B3: the Kd in the data set with FtsZ [3] was 8 µM and 18 µM. Besides, the “stoichiometry N” value in data set [4] amounted to 2.
